Test results published in US20140120109A1 (Regeneron, published 2014).
Changes are numbered by the printed parent chain. In names and notes the source's numbering stands.

T1: human TL1A, soluble, CHO-expressed, residues 72-251 of SEQ ID NO:244 with N-terminal His6-tag (human, UniProt O95150 72-251)
T1 construct: also called hTL1A; hTL1A (CHO)
T1 sequence: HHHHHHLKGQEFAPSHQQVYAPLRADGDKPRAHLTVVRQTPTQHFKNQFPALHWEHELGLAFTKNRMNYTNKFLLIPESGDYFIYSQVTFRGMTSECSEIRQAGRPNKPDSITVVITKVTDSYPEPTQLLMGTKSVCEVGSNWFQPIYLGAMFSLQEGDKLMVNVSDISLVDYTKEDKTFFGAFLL

T2: cynomolgus monkey TL1A, soluble, E. coli-expressed, residues 72-251 of SEQ ID NO:248 (cynomolgus monkey (Macaca fascicularis), UniProt O95150 72-251 (human entry))
T2 construct: with or without N-terminal Met; also called MfTL1A (E. Coli)
T2 chain: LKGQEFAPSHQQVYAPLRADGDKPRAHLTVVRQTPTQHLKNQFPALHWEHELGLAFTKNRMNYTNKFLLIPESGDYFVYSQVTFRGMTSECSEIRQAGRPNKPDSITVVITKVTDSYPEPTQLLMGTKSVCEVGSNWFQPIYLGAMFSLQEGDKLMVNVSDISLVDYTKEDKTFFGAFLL

T3: mouse TL1A, soluble, CHO-expressed, residues 76-252 of SEQ ID NO:250 with N-terminal His6-tag (mouse, UniProt Q5UBV8 76-252)
T3 construct: also called mTL1A; mTL1A (CHO)
T3 sequence: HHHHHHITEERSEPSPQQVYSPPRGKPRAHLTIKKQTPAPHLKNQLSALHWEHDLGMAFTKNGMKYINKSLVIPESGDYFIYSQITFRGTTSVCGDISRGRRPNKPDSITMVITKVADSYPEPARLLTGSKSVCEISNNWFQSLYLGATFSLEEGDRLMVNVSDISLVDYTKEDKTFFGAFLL

T4: mouse TL1A, soluble, E. coli-expressed, residues 76-252 of SEQ ID NO:250 (mouse, UniProt Q5UBV8 76-252)
T4 construct: with or without N-terminal Met; also called mTL1A (E. Coli)
T4 sequence: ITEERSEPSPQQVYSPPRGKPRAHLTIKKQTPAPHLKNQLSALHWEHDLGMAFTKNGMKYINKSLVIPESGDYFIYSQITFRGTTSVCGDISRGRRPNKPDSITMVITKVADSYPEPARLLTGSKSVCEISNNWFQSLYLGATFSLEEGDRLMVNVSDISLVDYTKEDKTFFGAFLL

T5: Fhm, hTL1A(Q167R), soluble, CHO-expressed, residues 72-251 of SEQ ID NO:246 (human, UniProt O95150 72-251)
T5 chain: T1 sequence with Q102R

T6: rat TL1A, soluble, CHO-expressed, residues 76-252 of SEQ ID NO:258 with N-terminal His6-tag (rat, UniProt Q8K3Y7 76-252)
T6 sequence: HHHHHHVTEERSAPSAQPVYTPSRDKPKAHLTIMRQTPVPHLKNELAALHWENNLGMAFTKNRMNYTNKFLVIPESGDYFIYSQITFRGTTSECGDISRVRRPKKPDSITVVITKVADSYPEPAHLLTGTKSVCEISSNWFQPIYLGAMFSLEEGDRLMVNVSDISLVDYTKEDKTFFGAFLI

T7: Fhm, hTL1A(Q167R), soluble, E. coli-expressed, residues 72-251 of SEQ ID NO:246 (human, UniProt O95150 72-251)
T7 construct: with or without N-terminal Met
T7 chain: T2 chain with L39F, V78I, Q96R

B1: H4H1752P (antibody, human IgG4 S228P, V domains shown)
VH: EVQLVESGGGLVQPGGSLRLSCSASGFTFSKYVMTWVRQAPGKGLEWVSAIGPTGRTTEYADSVQGRFTISRDNSMNTVFLHLNSLTAEDTAEYYCAKMFDWNYDVYFDSWGQGTLVTVSS
VL: DIQMTQSPSILSASVGDRVTITCRTSQSISNWLAWYQQKPGKAPNLLIYKASSLESGVPSRFSGSGSGTEFTLTISSLQPDDFATYYCQQYYRYWTFGQGTKVEIK
B2: H4H1805N (antibody, human IgG4 S228P, V domains shown)
VH: QVQLQQWGAGLLKPSETLSLTCAVYGGSFTGFYWSWIRQPPGKGLEWIGEINHRGNTNYNPSLKSRVTMSVDTSKNQFSLNMISVTAADTAMYFCASPFYDFWSGSDYWGQGTLVTVSS
VL: DIMLTQTPLTSPVTLGQPASISCKSSQSLVHSDGNTYLSWLQQRPGQPPRLLFYKISNRFSGVPDRFSGSGAGTDFTLKISRVEAEDVGVYYCMQATQFPLTFGGGTKVEIK
notes: human IgG4(S108P) form of H2M1805N
B3: H4H1818N (antibody, human IgG4 S228P, V domains shown)
VH: RLQLVESGGGLVKPGGSLKLSCAASGFTISDYYMSWIRQAPGKGLEWVSYIGGSGSTIYYADSVKGRFTISRDNAKNSLYLQMNSLRAEDTAVYYCAREDADSYYYYGMDVWGQGTTVTVSS
VL: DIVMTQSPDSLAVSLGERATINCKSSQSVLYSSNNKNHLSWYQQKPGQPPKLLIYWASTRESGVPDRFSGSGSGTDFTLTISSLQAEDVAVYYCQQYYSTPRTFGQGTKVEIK
notes: human IgG4(S108P) form of H2M1818N
B4: H4H1745P (antibody, human IgG4 S228P, V domains shown)
VH: EVQLVESGGGLVQPGGSLRLSCAASGFTFSSYAMTWVRQAPGKGLEWVSGVSGRGGSTYYADSVKGRFTISRDNSKNTLYLQMNSLRAEDTAVYYCAYWDISSFDYWGQGTLVTVSS
VL: DIQLTQSPSFLSASVGDRVTITCWASQGISTYLAWYQQKPGKTPKLLIYAASTLQSGVPSRFSGSGSGTDFTLTISSLQPEDFATYYCQQFNSYPLTFGGGTKVEIK
B5: H4H1719P (antibody, human IgG4 S228P, V domains shown)
VH: EVQLVESGGGLVQPGRSLRLSCVASGFTFQDYAMHWVRQAPGKGLEWVSGINWISDDMGYADSVMGRFTISRDNAKNSLYLQMDSLRAEDTALYYCAKDKGLRFLDYVMDVWGQGTTVTVSA
VL: DIVMTQSPLSLPVTPGEPASISCRSTQSLLHRNGHNYLHWYLHKPGQSPQLLIHLGSNRASGVPDRFSGSGSGTDFTLKISRVEAEDVGVYYCMQALQTPYTFGQGTKLEIK
B6: H4H1738P (antibody, human IgG4 S228P, V domains shown)
VH: EVQLVESGGALVKPGGSLRLSCAVSGFTFINDWMNWVRQAPGKGLEWVGRIKSTTDGGTTDDAAPVKGRFTISRDDSKNTLYLQMNSLKTEDTAVYYCTRDRNRQRNYFYDGMDVWGQGTTVTVSA
VL: B5 VL with L9V, T26S, S28R, R32N, H35N, H39D, H43Q, H54Y, I80V
B7: H4H1681N (antibody, human IgG4 S228P, V domains shown)
VH: EVQLLESGGGLVQPGKSLRLSCAVSGFTFSTYGMNWVRQAPGKGLEWVSSISGTGRTTYHADSVQGRFTVSRDNSKNILYLQMNSLRADDTAVYFCTKERGDYYYGVFDYWGQGTLVTVSS
VL: DIQMTQSPSTLSASVGDRVTITCRASQTISSWLAWYQQTPEKAPKLLIYAASNLQSGVPSRFSGSGSGTEFTLTISSLQPDDFATYYCQQYHRSWTFGQGTKVEIT
B8: H4H1750P (antibody, human IgG4 S228P, V domains shown)
VH: QVQLVESGGGVVQPGRSLRLSCVASGFTFSNYGMHWVRQAPGKGLEWVAVISYDGNNDLYSDSVKGRFTISRDNAKNALSLQMTSLRAEDTAVYYCARDSTMTPYYYHGIDVWGQGTTVTVSA
VL: DIQMTQSPSSLSASVGDRVTITCRASQDIRNDLGWYQQKPGKAPKRLIYAASSLQSGVPSRFSGSGSGTDFTLTISSLQPEDFATYYCLQHNSYPPTFGQGTKVEIK
B9: H4H1817N (antibody, human IgG4 S228P, V domains shown)
VH: QVQLQQWGAGLLKPSETLSLTCAVSGGSFSDYFWTWIRQPPGKGLEWIGEISHSGRTNYNPSLKSRVTISVDTSMSQFSLKMTSVTAADSAVYYCARDYPNWVFDYWGQGTLVTVSS
VL: EIELTQSPGTLSLSPGEGATLSCRASQSVFNSYLAWYQQKPGQAPRLLIYGASRRATGIPDRFSGSGSGTDFTLTISRLEPGDFAVYFCQQYGNSPLTFGGGTKVEIK
notes: human IgG4(S108P) form of H2M1817N

Columns and labels:
[1] = biological target: T1, human TL1A, soluble, CHO-expressed, …; experiment: SPR 37C, mAb captured
Summary of the method: (§1)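 Biacore T100 SPR with captured mAb and soluble TL1A/Fhm analyte; ka and kd fitted to a 1:1 model assuming monomeric TL1A. KD = kd/ka; t1/2 (min) = ln2/(60·kd).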

[2] = biological target: T2, cynomolgus monkey TL1A, soluble, E. …; experiment: SPR 37C, mAb captured
Summary of the method: as §1

[3] = biological target: T3, mouse TL1A, soluble, CHO-expressed, …; experiment: SPR 37C, mAb captured
Summary of the method: as §1

[4] = biological target: T4, mouse TL1A, soluble, E. coli-expressed, …; experiment: SPR 25C, steady state
Summary of the method: as §1

[5] = biological target: T5, Fhm, hTL1A(Q167R), soluble, …; experiment: cell-based or functional assay
[6] = biological target: T1, human TL1A, soluble, CHO-expressed, …; experiment: cell-based or functional assay
[7] = biological target: T6, rat TL1A, soluble, CHO-expressed, …; experiment: cell-based or functional assay
[8] = biological target: T6, rat TL1A, soluble, CHO-expressed, …; experiment: SPR 37C, mAb captured
Summary of the method: as §1

[9] = biological target: T7, Fhm, hTL1A(Q167R), soluble, E. …; experiment: SPR 37C, mAb captured
Summary of the method: as §1

Row | Kd [1] | t1/2 [1] | Kd [2] | t1/2 [2] | binding result [3] | binding result [4] | IC50, NFkB-luciferase reporter [5] | Kd [8] | t1/2 [8] | Kd [9] | t1/2 [9] | also measured | Binder
1 | 0.225 nM | 96 min | 1.32 nM | 29 min | no binding (tested: up to 100 nM) | no binding (tested: up to 100 nM) |  |  |  |  |  |  | B1
2 | 0.299 nM | 80 min |  |  |  |  | 186 nM |  |  |  |  | IC50, IFN-g release, average of donors [6]: 4 nM; IC50, IFN-g release, donor D1 [6]: 2.4 nM; IC50, IFN-g release, donor D2 [6]: 5.5 nM; IC50, IFN-g release, donor D3 [6]: 3.4 nM; IC50, IFN-g release, donor D4 [6]: 2.5 nM; IC50, IFN-g release, donor D5 [6]: 2.9 nM; IC50, IFN-g release, donor D6 [6]: 3.4 nM; IC50, IFN-g release, donor D7 [6]: 8 nM; IC50, IFN-g release, donor D8 [6]: 5.1 nM; IC50, IFN-g release, donor D9 [6]: 5.9 nM; IC50, IFN-g release, donor D10 [6]: 2.8 nM; IC50, IFN-g release, donor D11 [6]: 3 nM; IC50, IFN-g release, donor D12 [6]: 3.1 nM | B2
3 |  |  |  |  |  |  | 0.62 nM |  |  |  |  | IC50, NFkB-luciferase reporter [7]: 1.1 nM | B3
4 | 0.177 nM | 129 min | 0.281 nM | 74 min | no binding (tested: up to 100 nM) | no binding (tested: up to 100 nM) | 0.15 nM | 16.5 nM | 11 min | 0.207 nM | 71 min |  | B4
5 | 0.00761 nM | 1910 min | 0.289 nM | 40 min | no binding (tested: up to 100 nM) | no binding (tested: up to 100 nM) | 0.08 nM | 0.078 nM | 86 min | 0.174 nM | 42 min |  | B5
6 | 0.571 nM | 51 min | 4.2 nM | 4 min | no binding (tested: up to 100 nM) | no binding (tested: up to 100 nM) | 0.33 nM |  |  | 3.1 nM | 4 min |  | B6
7 | 0.254 nM | 31 min |  |  |  |  |  |  |  |  |  |  | B7
8 |  |  | 456 nM | 1 min | no binding (tested: up to 100 nM) | no binding (tested: up to 100 nM) | 3.1 nM |  |  | 0.244 nM | 335 min |  | B8
9 | 0.0278 nM | 1100 min |  |  |  |  | 0.12 nM | 1.6 nM | 26 min |  |  | IC50, NFkB-luciferase reporter [7]: 23.9 nM; IC50, IFN-g release, average of donors [6]: 6.5 nM; IC50, IFN-g release, donor D1 [6]: 6.6 nM; IC50, IFN-g release, donor D2 [6]: 3.1 nM; IC50, IFN-g release, donor D3 [6]: 4.7 nM; IC50, IFN-g release, donor D4 [6]: 2.4 nM; IC50, IFN-g release, donor D5 [6]: 8.5 nM; IC50, IFN-g release, donor D6 [6]: 4.7 nM; IC50, IFN-g release, donor D7 [6]: 7 nM; IC50, IFN-g release, donor D8 [6]: 7 nM; IC50, IFN-g release, donor D9 [6]: 9.5 nM; IC50, IFN-g release, donor D10 [6]: 7.3 nM; IC50, IFN-g release, donor D11 [6]: 7.3 nM; IC50, IFN-g release, donor D12 [6]: 9.4 nM | B9
